Measured values taken from patent US20110145941A1 (LAY LINE GENOMICS S P A, published 2011).

These binders were tested against T1, human TrkA receptor on the cell surface (human, UniProt P04629 33-796) (assay: flow cytometry on TF-1 cells, 4 µg/ml).
T1 construct: whole, on cells; PC12-hTrkA: high density; also called hTrkA; huTrkA
Set-up: Geo Mean Fluorescence: reference not given here

T1 sequence (P04629 33-796): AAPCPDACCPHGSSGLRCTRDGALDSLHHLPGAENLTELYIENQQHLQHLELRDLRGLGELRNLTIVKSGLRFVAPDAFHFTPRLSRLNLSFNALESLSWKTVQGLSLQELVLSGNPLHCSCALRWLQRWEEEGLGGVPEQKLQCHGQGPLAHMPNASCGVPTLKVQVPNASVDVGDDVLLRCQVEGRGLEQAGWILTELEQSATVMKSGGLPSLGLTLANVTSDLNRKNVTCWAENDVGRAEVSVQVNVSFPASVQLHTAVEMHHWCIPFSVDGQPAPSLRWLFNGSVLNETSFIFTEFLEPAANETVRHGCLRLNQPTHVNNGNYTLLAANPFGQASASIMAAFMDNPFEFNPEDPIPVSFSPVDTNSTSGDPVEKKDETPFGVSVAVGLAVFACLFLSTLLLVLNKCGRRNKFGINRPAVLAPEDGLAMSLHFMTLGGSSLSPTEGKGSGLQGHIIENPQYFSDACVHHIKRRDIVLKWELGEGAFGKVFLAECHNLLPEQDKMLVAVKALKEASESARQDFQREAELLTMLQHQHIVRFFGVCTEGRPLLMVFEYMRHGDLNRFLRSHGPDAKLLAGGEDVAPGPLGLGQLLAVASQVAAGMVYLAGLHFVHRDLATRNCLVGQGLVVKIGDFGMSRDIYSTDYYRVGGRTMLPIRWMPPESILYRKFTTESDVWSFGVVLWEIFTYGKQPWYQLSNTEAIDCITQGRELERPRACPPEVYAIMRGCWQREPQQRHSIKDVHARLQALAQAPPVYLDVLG

Row | Fold Increase [fold] | Geo Mean Fluorescence | Binder
1 | 1.9 | 6.5 | BXhVH2VL7 (antibody, human IgG1, V domains shown, Human IgG1 constant regions (IgG1 expression vectors); COS-7 supernatant; also called hVH2/hVL7) VH: EVQLLESGGGLVQPGGSLRLSCAASGFTFSTYTMSWVRQTPGKRLEWVAYISKGGGSTYYPDTVKGRFTISRDNSKNTLYLQMNSLRAEDTAVYYCAKGAMYGNDFFYPMDYWGQGTTVTVSS VL: QIVLTQSPATLSLSPGERATLSCSASSSVSYMHWYQQKPGQSPRLLIYTTSNLASGIPSRFSGSGSGTFYTLTISSLEPEDAADYYCHQWSSYPWTFGGGTKLEIK
2 | 1.3 | 4.5 | BXhVH1VL5 (antibody, human IgG1, V domains shown, Human IgG1 constant regions (IgG1 expression vectors); COS-7 supernatant; also called hVH1/hVL5) VH: EVKLLESGGGLVQPGGSLRLSCAASGFTFSTYTMSWVRQTPGKGLEWVAYISKGGGSTYYPDTVKGRFTISRDNSKNTLYLQMNSLRAEDTAVYYCAKGAMYGNDFFYPMDYWGQGTTVTVSS VL: QIVLTQSPATLSLSPGERATLSCSASSSVSYMHWYQQKPGQSPRLLIYTTSNLASGIPSRFSGSGSGTDYTLTISSLEPEDAADYYCHQWSSYPWTFGQGTKLEIK
3 | 1.4 | 4.9 | BXhVH1VL6 (antibody, human IgG1, V domains shown, Human IgG1 constant regions (IgG1 expression vectors); COS-7 supernatant; also called hVH1/hVL6) VH: EVKLLESGGGLVQPGGSLRLSCAASGFTFSTYTMSWVRQTPGKGLEWVAYISKGGGSTYYPDTVKGRFTISRDNSKNTLYLQMNSLRAEDTAVYYCAKGAMYGNDFFYPMDYWGQGTTVTVSS VL: EIVLTQSPATLSLSPGEEATLSCSASSSVSYMHWYQQKPGQSPRLLIYTTSNLASGIPSRFSGSGSGTFYTLTISSLEPEDAADYYCHQWSSYPWTFGGGTKLEIK
4 | 1.3 | 4.6 | BXhVH1VL2 (antibody, human IgG1, V domains shown, Human IgG1 constant regions (IgG1 expression vectors); COS-7 supernatant; also called hVH1/hVL2) VH: EVKLLESGGGLVQPGGSLRLSCAASGFTFSTYTMSWVRQTPGKGLEWVAYISKGGGSTYYPDTVKGRFTISRDNSKNTLYLQMNSLRAEDTAVYYCAKGAMYGNDFFYPMDYWGQGTTVTVSS VL: EIVLTQSPATLSLSPGERATLSCSASSSVSYMHWYQQKPGQSPRLLIYTTSNLASGIPSRFSGSGSGTDFTLTISSLEPEDAADYYCHQWSSYPWTFGQGTKLEIK
5 | 1.5 | 5.1 | BXhVH1VL4 (antibody, human IgG1, V domains shown, Human IgG1 constant regions (IgG1 expression vectors); COS-7 supernatant; also called hVH1/hVL4) VH: EVKLLESGGGLVQPGGSLRLSCAASGFTFSTYTMSWVRQTPGKGLEWVAYISKGGGSTYYPDTVKGRFTISRDNSKNTLYLQMNSLRAEDTAVYYCAKGAMYGNDFFYPMDYWGQGTTVTVSS VL: QIVLTQSPATLSLSPGERATLSCSASSSVSYMHWYQQKPGQSPRLLIYTTSNLASGIPSRFSGSGSGTDFTLTISSLEPEDAADYYCHQWSSYPWTFGGGTKLEIK
6 | 1.7 | 5.7 | BXhVH1VL1 (antibody, human IgG1, V domains shown, Human IgG1 constant regions (IgG1 expression vectors); COS-7 supernatant; also called hVH1/hVL1) VH: EVKLLESGGGLVQPGGSLRLSCAASGFTFSTYTMSWVRQTPGKGLEWVAYISKGGGSTYYPDTVKGRFTISRDNSKNTLYLQMNSLRAEDTAVYYCAKGAMYGNDFFYPMDYWGQGTTVTVSS VL: EIVLTQSPATLSLSPGERATLSCSASSSVSYMHWYQQKPGQAPRLLIYTTSNLASGIPARFSGSGSGTDFTLTISSLEPEDFAVYYCHQWSSYPWTFGQGTKLEIK
7 | 1.8 | 6.1 | BXhVH1VL3 (antibody, human IgG1, V domains shown, Human IgG1 constant regions (IgG1 expression vectors); COS-7 supernatant; also called hVH1/hVL3) VH: EVKLLESGGGLVQPGGSLRLSCAASGFTFSTYTMSWVRQTPGKGLEWVAYISKGGGSTYYPDTVKGRFTISRDNSKNTLYLQMNSLRAEDTAVYYCAKGAMYGNDFFYPMDYWGQGTTVTVSS VL: QIVLTQSPATLSLSPGERATLSCSASSSVSYMHWYQQKPGQSPRLLIYTTSNLASGIPSRFSGSGSGTFYTLTISSLEPEDFAVYYCHQWSSYPWTFGGGTKLEIK
8 | 1.5 | 5.1 | BXhVH1VL7 (antibody, human IgG1, V domains shown, Human IgG1 constant regions (IgG1 expression vectors); COS-7 supernatant; also called hVH1/hVL7) VH: EVKLLESGGGLVQPGGSLRLSCAASGFTFSTYTMSWVRQTPGKGLEWVAYISKGGGSTYYPDTVKGRFTISRDNSKNTLYLQMNSLRAEDTAVYYCAKGAMYGNDFFYPMDYWGQGTTVTVSS VL: QIVLTQSPATLSLSPGERATLSCSASSSVSYMHWYQQKPGQSPRLLIYTTSNLASGIPSRFSGSGSGTFYTLTISSLEPEDAADYYCHQWSSYPWTFGGGTKLEIK
